In patent publication US20200291391A1, “CROSS-LINKED EPITOPES AND METHODS OF USE THEREOF” (Indi Molecular, Inc., priority 2019, published 2020):

Columns and labels:
[1] = biological target: CD8 on CD8+ SupT1 cells (human) (UniProt P01732); assay: flow cytometry on CD8+ SupT1 cells
[2] = biological target: CD8 on CD8+ SupT1 cells (human) (UniProt P01732); assay: flow cytometry on CD8+ SupT1 cells; remark: listed apart in the source
[3] = biological target: CD8 on CD8+ SupT1 cells (human) (UniProt P01732); assay: flow cytometry on CD8+ SupT1 cells; ligand at 4 µM
[4] = biological target: CD8 on CD8+ SupT1 cells (human) (UniProt P01732); assay: flow cytometry on CD8+ SupT1 cells; ligand at 0.15 µM
[5] = biological target: CD8 on CD8+ SupT1 cells (human) (UniProt P01732); assay: flow cytometry on CD8+ SupT1 cells; ligand at 4 µM, room temperature
[6] = biological target: CD8 on CD8+ SupT1 cells (human) (UniProt P01732); assay: flow cytometry on CD8+ SupT1 cells; ligand at 0.4 µM
[7] = biological target: CD8 on CD8+ SupT1 cells (human) (UniProt P01732); assay: flow cytometry on CD8+ SupT1 cells; ligand at 4 µM, 4° C.
[8] = biological target: CD8 on CD8+ SupT1 cells (human) (UniProt P01732); assay: flow cytometry on CD8+ SupT1 cells; ligand at 1.3 µM
[9] = biological target: CD8 on CD8+ SupT1 cells (human) (UniProt P01732); assay: flow cytometry on CD8+ SupT1 cells; ligand at 0.05 µM
[10] = biological target: immobilized recombinant CD8 protein (UniProt P01732); assay: solid-phase ELISA on immobilized recombinant CD8 protein

CD8 on CD8+ SupT1 cells (human), sequence (P01732 22-235): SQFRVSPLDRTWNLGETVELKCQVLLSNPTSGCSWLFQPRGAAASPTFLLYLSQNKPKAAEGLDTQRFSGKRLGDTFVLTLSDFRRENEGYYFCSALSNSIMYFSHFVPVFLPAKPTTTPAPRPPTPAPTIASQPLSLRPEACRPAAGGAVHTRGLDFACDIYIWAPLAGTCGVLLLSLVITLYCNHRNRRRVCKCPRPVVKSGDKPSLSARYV

Substance | MFIR (Mean Fluorescence Intensity Ratio) (ratio relative to unstained) [2] | MFIR (Mean Fluorescence Intensity Ratio) (ratio relative to Biotin1k-PEG) [2] | also measured
Biotin anti-CD8a Ab (Clone RPA-T8) (antibody) | 73.9 | – | MFIR (Mean Fluorescence Intensity Ratio) (ratio relative to unstained) [1]: 86.6
Biotin-1kPEG-aykfn (SEQ ID NO: 36) (peptide) | – | 1.1 | –
Biotin-1kPEG-cy(krsah) (SEQ ID NO: 27) (peptide) | 1.6 | – | –
Biotin-1kPEG-cy(snprk) (SEQ ID NO: 28) (peptide) | 1.1 | – | –
Biotin-1kPEG-cy(tfpkk) (SEQ ID NO: 21) (peptide) | 1.8 | – | MFIR (Mean Fluorescence Intensity Ratio) (ratio relative to unstained) [3]: 1.5; MFIR (Mean Fluorescence Intensity Ratio) (ratio relative to unstained) [4]: 1; MFIR (Mean Fluorescence Intensity Ratio) (ratio relative to unstained) [5]: 1.5; MFIR (Mean Fluorescence Intensity Ratio) (ratio relative to unstained) [6]: 1.1; MFIR (Mean Fluorescence Intensity Ratio) (ratio relative to unstained) [7]: 1.5; MFIR (Mean Fluorescence Intensity Ratio) (ratio relative to unstained) [8]: 1.1; MFIR (Mean Fluorescence Intensity Ratio) (ratio relative to unstained) [9]: 1
Biotin-1kPEG-nfyrr (SEQ ID NO: 32) (peptide) | – | 1.2 | EC50 [10]: 47 nM
Biotin-1kPEG-rftaf (SEQ ID NO: 37) (peptide) | – | 1.1 | –
Biotin-1kPEG-rpyay (SEQ ID NO: 35) (peptide) | – | 1 | –
Biotin-1kPEG-vlyrr (SEQ ID NO: 30) (peptide) | – | 2 | EC50 [10]: 77 nM
Biotin-1kPEG-yfrsr (SEQ ID NO: 33) (peptide) | – | 1.1 | –
Biotin-1kPEG-yrpfy (SEQ ID NO: 31) (peptide) | – | 1.1 | –
Biotin-1kPEG-yrsny (SEQ ID NO: 34) (peptide) | – | 1 | –
